This data set in a line: label from the status in PepcDB records.

As for “MKLVWSPETASKAYIDTVKSCENLETPDAAELIAAMAAGWNVKLIVETWSEGDAIASSIGLNVASKHANAKHICIVQNSRSESAYLQAIQESSSPLNFPETIVAEEPGKAMKKLQGVDFLVVDWRNKEFAAAALKNAAFGNRGAVVVCRNGYSSLRRVLRDRKVVRTVTLPVTGGIEIAHVAARNSGKSGNNKRRWITHVDQRSGEEHVFSI”, the protein production entry is given as “failed”.

For “MKLYIYDHCPFCVKARMIFGLKNIPVELNVLQNDDEATPTRMIGQKMVPILQKDDSRYLPESMDIVHYVDNLDGKPLLTGKRNPAIEEWLRKVNGYVNQLLLPRFAKSAFDEFSTPAARQYFIRKKEASSGSFDNHLAHSAGLIKKIGDDLRLLDKLIVQPNAVNGELSEDDIHLFPLLRNLTLVAGIHWPTKVADYRDNMAKQTQINLLSSMAI”, the protein production entry is reported as “not failed”.

For the sequence “MKMLNRLDLGVPCLRAGFAGEQAFFLAMDGRLHVQQGDQRRVVALHDGDVLSACAAPGQADAAAWLLSAGEDGRVMRAGAGEPDCVASVPNKWVTALAVAADGALAYASGRTVWLAGGGGEAAALPQERPVQALRFSHGGRWLAVAGYDGLALYDRQAGGEPQRLDWKGMPTRVAFSPDDRFVLVATRDAVLHGWRLDTLRHFRMVGYPRAVGSWSWLAGGQWLATDGSAGAVLWPFEGEEGPIGSTPLALGERPDGEVSAVACHPARPWVAVGYADGLMVLESTDGALRRILGQAGRDRVACLAWDRAGARLAYGTPSGACGVIQADTGEEGLEHHHHHH”, the protein production entry is “failed”.

“MKMNNTKEYSIRTPSLGNLPPGTTGTCCPPPLVFPLLPLSPPPSPPPSPSSPPRLPPPFPALFPPEPPLPPRFELPPPLFPPPPLPRLPPPLLPPPEEPPREPPPPPPPPEEPPPPASCLRTKSPENGIVSTVK”: the protein production entry is reported as “failed”.

Take “MKMYEVKEFSSGKRKLEDYKSIIGEEEVSKIQEKAEKLKGRSFVHVNSTSFGGGVAEILHSLVPLLRSIGIEARWFVIEGPTEFFNVTKTFHNALQGNESLKLTEEMKELYLNVNRENSKFIDLSSFDYVLVHDPQPAALIEFYEKKSPWLWRCHIDLSSPNREFWEFLRRFVEKYDRYIFHLPEYVQPELDRNKAVIMPPSIDPLSEKNVELKQTEILRILERFDVDPEKPIITQVSRFDPWKGIFDVIEIYRKVKEKIPGVQLLLVGVMAHDDPEGWIYFEKTLRKIGEDYDVKVLTNLIGVHAREVNAFQRASDVILQMSIREGFGLTVTEAMWKGKPVIGRAVGGIKFQIVDGETGFLVRDANEAVEKVLYLLKHPEVSKEMGAKAKERVRKNFIITKHMERYLDILNSLGGLEHHHHHH”: the protein production result is “not failed”.

As to “MKNELICYKQMPVWTKDNLPQMFQEKHNTKVGTWGKLTVLKGKLKFYELTENGDVIAEHIFTPESHIPFVEPQAWHRVEALSDDLECTLGFYCKKEDYFSKKYNTTAIHGDVVDAAKIISPCKVLDLGCGQGRNSLYLSLLGYDVTSWDHNENSIAFLNETKEKENLNISTALYDINAANIQENYDFIVSTVVFMFLNRERVPSIIKNMKEHTNVGGYNLIVAAMSTDDVPCPLPFSFTFAENELKEYYKDWEFLEYNENMGELHKTDENGNRIKMKFATMLARKK”, the protein production result is listed as “not failed”.

“MKNIFLTMSLGIGLLFPCKLHAQSQYPFQNTTLSTEERVDDLIKRMTLEEKIDLLSGYNDFYLHPCERLGIPAFKLADGPLGVASWGLFGRATAFPSALSLAASWNKNLAEKTGAMYAQEWRARGIHFLLAPGVNNYRASKGARNFEYFGEDPYLASEMVVPFIKAVQDGGVIATIKHFAANDQEFDRYTVSTEVSERALQEIYLPPFKAAVQKAGVKAVMTGYNLVNGVYCTENKHLIDILKKDWGFKGMLMSDWACTYSAENAANYGLDLEMGSNDWFTRKELLPLVKEGKVTEEVINDKVRRIYGACISMGFFDRPQQDTDIPTFNPQANQMALNTACEGIILLKNEQNTLPIHRPKVIAVIGPTANPAIVSDRIYNVNSIVYGGGGSSKVHPWYVVSALEGIRQEFPEATVLYTEGISNQFKPRLFRNSKFRTKEGKPGLEANYYALSSDTSATLSDKMIQQQAVAAGRTVSVNQSADRTIETDKEESGLILRRTDRTVNYEWWGYPFNESKLGNDYRVCWEGYVDVEKTDSIRFFVDAQGAYRLWIDGTLALDASQSQSFDVRNTAISAKKGDAKHIRLEFCNQRSTPAEIRMGYAYQSDIDFSEAKRLAAKADLVVFCAGLDGSIELEGRDRPFDLPYGQDMLIQELVKVNPKLIVAIHAGGGINMTRWIDQVPAVVHALYPGQEGGHALAHILSGKVNPSAKLPFTIEKRWEDSPACGHYDETRKEKKVYYTEGIFTGYRGYDQKGIEPLFPFGFGLSYTTFDYSGLNIRMTDKKQKQLVVSFTVTNTGQRDGYEVAQLYVRDMQSKEPRPLKELKGFDKVYLKAGESKQIEIGLSEDAFQYFNAKQNRWVFEKGEFEILVGASSKDIRLAEKIKM”: the protein production result is “failed”.

Turning to “MKNITKLSTVALSLLLCTACAASNTSTSKTQSHHPKQTKLTDKQKEEPKNKEAADQEMHPQGAVDLTKYKAKPVKDYGKKIDVGDGKKMNIYETGQGKIPIVFIPGQAEISPRYAYKNLIERLSKKYKIYTVEPLGYGLSDIPTKPRTLENITKEIHTGLNKIGVKNFYLAAHSLGGMYSLNYAKNYPEEVRGFIGMDTSTPWMEGEQKTKYDPESAKWAMKLPDVDDKTNEQYLSIAKKINGNKSQRDEDERLGDNLGKLKNVKFPKGMPTKYFLADQSVEGIKLRQADFKGLKNWDQQHIDLSEDPKDASVEIFKGSHNIFQTQYEHMAKAIDGFIQSHQK”, the protein production result is “failed”.

Regarding “MKNKIKFATIIHPDVSFFNKQEVGEGTIIYPGLIVVGRFKLGKHVILKQKCSLGNNIEIGDYSFISFNSNIDSNVMVKEGSYIEANTTILANSNIDKNTYIKEGSILYLEHHHHHH”, the protein production entry is given as “failed”.

As to “MKNKTIISKQNLVLIVIMVGATLTDQLSKIWITSNLQLGESIEIIPSFFKITYAQNTGAAWSILEGQMTFFYVITLVALILLGWYFYRLKDYQIIQKIGVALMVSGTLGNFIDRLLFQYVRDSLDFHILGYNFPIFNVADVLLICGVLFIIIDEVLKSFGVSYKKM”, the protein production entry is recorded as “failed”.

Consider “MKNLEKCILCGSHNIVPHWKNVRSYNVSKCLDCSFLFLHEIIDDHELENYYSQSYFMASYAKTENNLIDAANNPKITAEAKEYANLIKLHHPEAHNVGEIGCSWGYLLYNLQNFGYSAKGFELSKTTAEMGSKQLGINITSGFFETQYNQFDVLILRHVLEHVPDPQDLLEKIYDSIKKDGLFILEGPNLDSISSRLFGKNVSWVSPPDHISFPNFISLIMACEKLGFTCIHKSSRRGRGISIFHQALLNSVGLMFGGKEKAKVNLGGINEKPNNQQLSSLKSAALKIVDFLDFLSSPMQPFLKQALLEEEMLIIFKKLEHHHHHH”, for which the protein production result is “failed”.

Turning to “MKNLKIIWIYRLGLLLLVFLCLLVFLKIKPLWAPIIFVCKVAITPFLIACFIAYLLHPLIEKIHKEGMPRTLAILLIYILFFGGIGYGIYKGTPVVIKQLQEINEQFPQFTKMYDSWMDGVTEQTANFPSFIHEKVKQIFVGVETKIQALLNKVMSTARGVLDSLLIIFLIPFIVFYILKDYGEFYHIFWKLVPSKWRSTGQMLAKEIDKSLGSYIRGQLFVCLVLGGVSALSFWFIGMKYPLLLGIIIGVTDIIPYFGPILGAIPTLMIAATVSTSLLIKAGIAIAILQFVESNILSPYIVGKSLRMHPVIIMLALLVGGEVGGIVGLLISVPILAVIRTVIVHVRPLWKKEDMQ”, the protein production entry is “failed”.

In the case of “MKNLKNKHFALLYLVLFLVLAKLSPFIITALIMGLYLSIIIDYVARFLEVFIKKPRVLPRVISNVLVFLTIAYSAVNFFPVIVREAQKVFSEIDRIRSGLENIDIPGWLSSILSSISASFSEGALSLVNKIVGYVPSFITAAILIVITAFIVSSLKRLIKENVHYLFPTNPSDGKEFLKTTYTEFERFVGGQVLVAIFVGLFVGFGAFIFKIPSAFFLGMLAFVTDFVPYLGVVISAIPLLMLAFSVHGLSGLLIGTIILVAANQLEMWVLAPKIQSNTLNVHWFIILIMILILGDLFSFGGVLIALPFLIFLKNFWKQYVMGG”, the protein production entry was “failed”.

“MKNPIIDNIPCVLLAGGKSSRFITNNIQTNKALMPLKSYSSLLEYQYTRLLKLFKKVIISTKKSYELNAPYLLEKESDLFSPLFGIHNAFLTLQTPYIFFIPIDTPLVSFESIKALCGIKNFSVTYAKSPTKEHYLISLWHQNTLNALIYALKTQNYRLSDLVKNTSSVAINFDKEEEFLNLNTLKDYELAVQILKKRANG”: the protein production entry is given as “failed”.

For “MKNRAWLYVILTCIFEIFWVFGFNTANTWWHWIIILGVIAVDFHFLSKACEHLATGTVYAVFAGAGTVGTFLMDVFLFGGSFSVGKLFFIVMVVAGVIGLKLADNKEETVEGAA”, the protein production entry was “failed”.

In the case of “MKNRYIILSILLFSVACRKFEPYPVFSKLALKKAFVDLGTHKLATFSVIRNSNYLVVFESGLGDDHTIWNSSNIALKAADTIDVVTYDRANRGQSGNGPVPRDVARLQSELGSVIDSFANGRKVVLIGHSLGGFMIRAWAVNNPTKVAGMLFIDPSHEKAGLDSAQNQQAEDYMYGKWSSYGTNFGAALESREWVEDNMYMATLGNLPDVPVIVLTAMKVDPPNKVEILKPWYDAHESLGTGVTDFTHVSIPNSGHMVMIDQPQILLNYIHVLLAKLH”, the protein production entry was “failed”.

For the sequence “MKNSENDYIQSLFQILPGLLTAFLVACLSKFLAIWLPSLGAATIAILLGIFLGNTFVRGANLNRGTKVAESKLLEFSVVLLGTTVTFQTIAQIGLQGVAFILIQMSLTIIFAYLIGKKLAFSDNMSLLMAGGNAVCGSSAIASIAPAIQADEEEKGQIITLVNLLGTVLMLTLPILSGILYGTNLLARSALIGGTLQSVGQVVASANMVNENAVQLAMLFKIMRIVLLVAVVYLFGRFKQSKTAESEAELVEVTKKSSALPWYVVGFFIACVFNSLIHFPVVISETAHFFSSWFEITALAAIGLRLDFKKFFQEGKRFLIYGLSVGTVQVVLAILLLALLQF”, the protein production result is given as “failed”.

For the sequence “MKNVEVLTGDPKKAILKLSAPMVVSNLIFTLYNLVDGIWVAGLGPDALSAVGLFFPIFFVFIAISFGLSVGANSAVSRRIGAKRYDAACVAATLAVAMGILVSIPMTLSVVFLNGVMVFLGADGEILRLAVDYGSIMVLGSVFLVFSNVSAGILNGEGNARMAMYANAAGSLLNMVLDPIFIYLLGYGIAGAAIASVISMALSSIVFSFWFLSGRSYVRFRVAGWNLPTVFDLLRVGMPASLSMLTMSVAFMLINRVVIETGGSEGLAAYTSAWRLIQFGFVPLFGVSAALTAVSGAAYGARNPRKIGESLNYTVKLLLAVDAAILALMVAFAPQIALIFTYTEVSAVMYEEIVRTIRIAAFVLLFAPLGVSSSAVFQGMGKGERSFAITVLRAIVFQVSLCYVLAVPFGFDGVLLGFVLGEALGCFTGFSWVRLTVRRLERCLLST”, the protein production result was “failed”.

With “MKPALRRGLVWIGCTASSWGGLVLPSAWSPAAIAQTRAPTNQTGMQLQINGRAIAGQWVVEPASQGSFIWIEEVALRNGLGLELLPGLSTTRQAIRWFSDGRVAEGVEQVPARRQNGRRFLEVSSLARRSGWSLAVLADQLVIQLPAATLRNLRDGQQGANRRLVLDFDRPTPWEWDAIGQQLRFDGSVPAQLVPSLQRYGIQAEQQGDRTSLRLPAGLGVRVSSLGSPDRIFIDLPTTTGLLSPPAGLGSNPAPLTPAPPDLAGTQLQQRQVTVDGATFPVFVIQLDLRQPNVRLAPIWAGNGSLEGTQVLQAVARDRGAAIAINAGFFNRNNRLPLGAIRRDNIWYSGPILNRGAMAWNDQGEVLIDRLGLQETLQLSSGTRIPLVALNSGYVRAGAARYTEAWGNSYQTILDNEVVVTVQGDRVVSQSQADKAGSNRFTIPRNGYLIVLRSANSLRTSLVNGTTIQVLQQAQPSQFDRFPHALGGGPLLVKSGRVVVNPQAEGFSRAFEIEAAPRSAIGLMPDGRLVLVAAHEQNQGQGPTLPQMAAIMQQLGVVDALNFDGGSSTSLIVNGQLVNRARGSAARVHNGLGVFLGPTTPASLR”, the protein production result is listed as “failed”.

Values taken from a protein production outcome set (Wang et al. 2014).
